± gives the standard deviation of the averaged measurements. A value given as a limit tells only on which side of the number the result lay.

Series [1] in a line: purified protein yield per well (BCA); higher = higher soluble expression. The method in brief:
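The measured quantity is purified protein yield per well, determined with the Pierce Rapid Gold BCA kit. Anything below 25 ug (0.1 mg/mL) lies under the detection threshold. Enzymes were expressed in E. coli C41(DE3) in 2 mL autoinduction cultures with 100 µg/mL kanamycin at 37 °C for 2 h, then 18 °C for 40 h, and purified on an OT-2 robot using Ni-charged magnetic beads and SUMO protease release.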

Series [2] in a line: PET hydrolysis, aromatic products released after 48 h (umol product/mg enzyme); higher = more PET depolymerization activity. How it is done:
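HTP-purified, SUMO-cleaved, tagless PET hydrolase candidates (5 ug, 1.43 mg/g PET) were incubated 48 h without shaking with 3.5 mg amorphous PET film (aFilm) or crystalline PET powder (cryPow) in 0.5 mL buffer: NaCitrate pH 4.5/5.5, NaPhosphate pH 6.5/7.5, glycine pH 8.5. Incubation was at 40 or 60 C. Aromatic products (TPA, MHET, BHET) in the supernatant were quantified by UV absorbance at 260/280 nm relative to buffer blanks and expressed per mg enzyme. LCC-ICCG was the positive control on every plate.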

The mark [3] stands for this setting: substrate: cryPow, 40 °C, pH 4.5.
Setting [4] is: substrate: cryPow, 40 °C, pH 5.5.
Where [5] appears, read: substrate: cryPow, 40 °C, pH 6.5.
Where [6] appears, read: substrate: cryPow, 40 °C, pH 7.5.
The mark [7] stands for this setting: substrate: cryPow, 60 °C, pH 5.5.
The mark [8] stands for this setting: substrate: cryPow, 60 °C, pH 6.5.
The mark [9] stands for this setting: substrate: cryPow, 60 °C, pH 7.5.
Setting [10] is: substrate: cryPow, 40 °C, pH 8.5.

Regarding “AAPAGPAALPARPLAAAPADSPYERGPAPTEASITAERGPFAIEKIDVPAGSGTGFNRGTIYAPTDTSQGTFGAIAVSPGFMSPQSVIDWYGPRLASQGFVVMTLETKSLLDAPAARGDQLLAALDYMTGKSKAKDRIDASRLAVMGHSMGGGGTLEAANKRASLQAAVPLAPWDTNYDWKNVQAPTMIMGADNDTIAPADSMAERYYGTLTAVPEKAYLELRNAGHTTFNAPNTTIAKYAIAWMKRFVDDDARYEQFLCPEPSPSTTIAQYEGTCPTG [TEP067]”, the “purified protein yield per well” value in series [1] turned out to be 49.7 µg. Also, the PET hydrolysis is 5 in series [2] (setting [3]), 12 in series [2] (setting [4]), 14 in series [2] (setting [5]) and < 3 in series [2] (setting [6]).
As to “MHPTPDRAKVLPVNVSRGPAEPPAARSARPGGRSAPDGLRPGRRRPVPSSEQGATDVQSHPPTPANRRTRTVATLALALTLVGGAGAIAPTAHAAAGHERGPNPTSAALEASRGPFSVSSTTVSSLSASGFGGGTIYYPNDTGQGTFGGVIVAPGFTASRSTMAWLAERLASHGFVVFNIDTITRSDQPDSRGRQLLAAADHLAEESSPAVRSRLDAGRIGVMGHSMGGGGTLAAAESRPSLQAAVPLTPWHTDKSWGSVQVPTMIIGAENDSVAPVSSHAEPFYNSLSSAQEKAYLELNGASHFAPNSSNSTLAKYSIAWMKRFVDDDLRYDQFLCPAPGRSTRIEEYRSSCPH [TEP081]”, in series [1], the “purified protein yield per well” value was 35.7 µg. Further, the PET hydrolysis in series [2] (setting [3]), in series [2] (setting [4]), in series [2] (setting [5]) and in series [2] (setting [6]) was < 3 throughout.
“ADNPYQRGPDPTPASVAAVNGPFATASVSVPAGYGFGGGMIYYPTDTSQGTFGGIAISPGYTALFSAELAWMGPWLASHGFVVIGIETNSRNDFDEARGTQLLAALDYLTQQSPVRTRVDPNRLAVSGHSMGGGGALNAAIRRPSLKAAVGLAPFLPSSNLANDRVPTMVFAGQQDTVVSPSYVTNLYNSLPATTESAYLEIAGGDHGFPVGRPNQVMIRTMLPFVKIFLDNDTRYSQFLCPLMDSTGVVTYRSTCPLLPPGLPTTPPTSTSSNPTVGPTTPSTTAPTTTPAPGGACTATYRTTNSWPGGFQGEVTITAGSSAINGWTVRWTLGSGQTISQVWNGEVSITGSTVSVRNAPYNGSLPASGSTTFGFLGGGSPSSPSLTCTSP [TEP165]”: the “purified protein yield per well” value in series [1] worked out at 433 µg. The PET hydrolysis was < 3 in series [2] (substrate: aFilm, 40 °C, pH 4.5); < 3 in series [2] (substrate: aFilm, 40 °C, pH 5.5); 2 ± 2.8 in series [2] (substrate: aFilm, 40 °C, pH 6.5); < 3 in series [2] (substrate: aFilm, 40 °C, pH 7.5); 2 ± 2.8 in series [2] (substrate: aFilm, 60 °C, pH 4.5); < 3 in series [2] (substrate: aFilm, 60 °C, pH 5.5). Moreover, the PET hydrolysis in series [2] (substrate: aFilm, 60 °C, pH 6.5) is 1.5 ± 2.1; in series [2] (substrate: aFilm, 60 °C, pH 7.5), < 3; in series [2] (setting [3]), 4.5 ± 0.71; in series [2] (setting [4]), 11; in series [2] (setting [5]), 52 ± 2.8; in series [2] (setting [6]), 67 ± 11. Besides, the PET hydrolysis in series [2] (substrate: cryPow, 60 °C, pH 4.5) came to 12; in series [2] (setting [7]), 25; in series [2] (setting [8]), 46 ± 1.4; in series [2] (setting [9]) it was 45.5 ± 2.1.
For “ATTAAAPAAAVRADSPYQRGPAPTEASVTAARGPFAIAQVTVPAGSGTGFNKGTIYYPTDTGQGTFGGVAVMPGFTSPQSVIQWLGPRLASQGFLVFTLDSLSLVDFPTARSQQLLAALDYLATRSTVRTRLDPNRLAVMGHSMGGGASLWAAQNRPSLKASVPLAPWETDTTWQGVRVPTMIIGGQADTVAPPATMAIPDYTSMTSAPEKAYLELRNGGHGAPATESPTVAKYALSWLKRFVDLDTRYDQFLCPAPAPTTAISQYRDTCPNG [DP058]”, the “purified protein yield per well” value in series [1] came to 52 µg. Besides, the PET hydrolysis in series [2] (setting [4]), in series [2] (setting [5]), in series [2] (setting [6]), in series [2] (setting [10]), in series [2] (setting [7]) and in series [2] (setting [8]) was < 3 each time. The PET hydrolysis in series [2] (setting [9]) was < 3; in series [2] (substrate: cryPow, 60 °C, pH 8.5) it was < 3.
With “VPVVPAQQENPYQRGPDPTPESVEAPRGSFAIEKATIARGSVQGFGGGTIYYPTDTAEGTFGAVAISPGFTESQSAISWYGERLATQGFVVFTIDTNGGLDQPDSRADQLLAALDFLTGSSEVKDRIDASRLGVLGHSMGGGGSLSAAKKRPALQAAVPLAPWHTNSNWSDVTVPTLIVGAENDAVAPVGMHAEPFYAGLTKAPEKAYLELKGADHFVTNSPNTVIAKSTLSWLKRFIDDDTRYDQFLCPPPKPDNDISEYRDTCPN [DP051]”, the “purified protein yield per well” value in series [1] was < 25 µg. In addition, the PET hydrolysis in series [2] (setting [4]), in series [2] (setting [5]), in series [2] (setting [6]) and in series [2] (setting [10]) was < 3 each time.
Take “AEPATIHGPAPTEESITAPTGPFEIDRETVPRSTVEGFGGGTIYYPTDTSEGTFSAVAIAPGYTAGQETLAWLGPRLASQGFVVFTIDTITTSDRPDARAEQLAASLDYLTGSSEVQDRIDPARLGVMGHSMGGGGALQAALDDPGLKAAIPMTPWNTVKDFSGVRTPTMIIGAQNDTVAPVAQHSEPFYESLPDDPGKAYLELAGASHFAPNRDDTTIAKSSIAWLKRFLDDDTRYDRFLCPPPQDPEISDYRATCPY [DP023]”: the “purified protein yield per well” value in series [1] turned out to be 33 µg. The PET hydrolysis in series [2] (setting [4]), in series [2] (setting [5]), in series [2] (setting [6]) and in series [2] (setting [10]) was < 3 in each case.
On to “DSPYERGPDPTTSSIEASSGPFDVDEDSVSSWSVSGFGGGTVYYPEDDGQTYGGVVIAPGYTESSSAMAWLGEYLASHGFVAFNIDTNTRYDQPDSRGRQIEAALDYLAEDSDVSDLVDPNRLAAMGHSMGGGGTLAAAEDRPELKAAIPLTPWHTDKTWGGVTVPTMIIGAENDTIAPNSSHSIPFYNSLSTSTERAYVELDGEGHLVTSSRNTELASNSVSWLKVFVDEDDRYEQFLCPAPSTGWGSPYSDYRDSCPYI [DP033]”, for which, in series [1], the “purified protein yield per well” value turned out to be 31 µg. Also, the PET hydrolysis in series [2] (setting [4]), in series [2] (setting [5]), in series [2] (setting [6]) and in series [2] (setting [10]) was < 3 each time.

The values are drawn from the supplement of paper PMC12455559.
